The values below come from the Immune Epitope Database (IEDB).

Assay [1] has as its target HLA-A*69:01. The experiment in a line: IEDB peptide-MHC binding, purified MHC/competitive/fluorescence; filed as Kd, often an IC50 or EC50 that approximates it; ≥ and ≤ were set here for values at or beyond the usual limits of such assays.
Assay [2] has as its target HLA-B*46:01. The description is as above.
For assay [3], the target named is HLA-B*51:01. The description is as above.
The target of assay [4] is HLA-B*15:17. The assay is described as above.
In assay [5] the target is HLA-B*18:01. The description is as above.
Assay [6] concerns the target HLA-B*39:01. Described as above.
For assay [7], the target named is HLA-B*57:01. Described as above.
Assay [8] has as its target HLA-A*02:01. Described as above.
For assay [9], the target named is HLA-A*26:01. The assay is described as above.
Assay [10] addresses HLA-B*27:03. The description is as above.
In assay [11] the target is HLA-A*24:03. The experiment in a line: IEDB peptide-MHC binding, purified MHC/direct/fluorescence; filed as Kd, often an IC50 or EC50 that approximates it; ≥ and ≤ were set here for values at or beyond the usual limits of such assays.
Assay [12] concerns the target HLA-A*23:01. Described as above.
Assay [13] addresses HLA-A*02:11. The description is as above. Particulars: source organism: Araucaria virus.
Assay [14] has as its target HLA-B*15:01. Described as above. As to conditions: source organism: Orthohantavirus andesense.
Assay [15] has as its target HLA-A*68:02. Described as above. As to conditions: source organism: Araucaria virus.
Assay [16] has as its target HLA-A*02:19. The description is as above.
The target in assay [17] is HLA-A*02:16. The assay is described as above. As to conditions: source organism: Araucaria virus.
Assay [18] addresses HLA-A*03:01. The assay is described as above.
Assay [19] concerns the target HLA-A*29:02. The description is as above.
For assay [20], the target named is HLA-A*02:12. The description is as above.
The target in assay [21] is HLA-B*15:01. Put plainly: IEDB peptide-MHC binding, purified MHC/competitive/fluorescence; filed as Kd, often an IC50 or EC50 that approximates it; ≥ and ≤ were set here for values at or beyond the usual limits of such assays.
Assay [22] concerns the target HLA-A*02:19. The assay is described as above.
In assay [23] the target is HLA-A*03:01. Described as above.
The target in assay [24] is HLA-A*29:02. The assay is described as above.
The target of assay [25] is HLA-A*02:17. Put plainly: IEDB peptide-MHC binding, purified MHC/competitive/radioactivity; filed as Kd, often an IC50 or EC50 that approximates it; ≥ and ≤ were set here for values at or beyond the usual limits of such assays.
The target in assay [26] is HLA-A*02:01. Described as above.
The target of assay [27] is HLA-A*02:06. Described as above.
Assay [28] concerns the target HLA-A*02:03. The assay is described as above.
Assay [29] concerns the target HLA-A*68:02. The assay is described as above. As to conditions: source organism: Dengue virus 3 Martinique/1243/1999.
Assay [30] deals with HLA-A*26:01. The description is as above. Particulars: source organism: Dengue virus 4 Philippines/H241/1956.
Assay [31] has as its target HLA-A*30:01. The description is as above. Particulars: source organism: Dengue virus 1 Brazil/97-11/1997.
Assay [32] addresses HLA-A*31:01. The experiment in a line: IEDB peptide-MHC binding, purified MHC/competitive/fluorescence; filed as Kd, often an IC50 or EC50 that approximates it; ≥ and ≤ were set here for values at or beyond the usual limits of such assays. Particulars: source organism: Zaire ebolavirus.
The target of assay [33] is HLA-A*01:01. The experiment in a line: IEDB peptide-MHC binding, purified MHC/competitive/radioactivity; filed as Kd, often an IC50 or EC50 that approximates it; ≥ and ≤ were set here for values at or beyond the usual limits of such assays. Particulars: source organism: Dengue virus 4 Philippines/H241/1956.
[34] abbreviates: source organism: Araucaria virus.
The mark [35] stands for this setting: source organism: Campylobacter jejuni subsp. jejuni NCTC 11168 = ATCC 700819.
Where [36] appears, read: source organism: Dengue virus 4 Philippines/H241/1956.
The mark [37] stands for this setting: source organism: Mycobacterium tuberculosis variant bovis BCG str. Pasteur 1173P2.
The mark [38] stands for this setting: source organism: Dengue virus 1 Singapore/S275/1990.
[39] abbreviates: source organism: Dengue virus 2 Thailand/NGS-C/1944.
Setting [40] is: source organism: Dengue virus 2 Peru/IQT2913/1996.
The mark [41] stands for this setting: source organism: Zaire ebolavirus.

With AQKLATKPV, the Kd in assay [1] (setting [34]), in assay [2] (setting [34]), in assay [3] (setting [34]), in assay [4] (setting [34]), in assay [5] (setting [34]) and in [6] (setting [34]) was ≥ 20 µM each time. Besides, the Kd is ≥ 20 µM in [7] (setting [34]); ≥ 20000 nM in assay [8] (setting [34]); ≥ 20 µM in assay [9] (setting [34]); ≥ 20 µM in assay [10] (setting [34]); ≥ 20 µM in assay [11] (setting [34]); ≥ 20 µM in [12] (setting [34]). Also, the Kd in assay [13] was ≥ 20 µM; in assay [14] it was 716 nM; in assay [15], ≥ 20 µM; in [16] (setting [34]), ≥ 20 µM; in [17], ≥ 20 µM; in assay [18] (setting [34]), ≥ 20000 nM. Also, the equilibrium dissociation constant (Kd) in assay [19] (setting [34]) and in assay [20] (setting [34]) was ≥ 20 µM throughout.
As for AVGFFPTGV, the Kd was ≥ 20 µM in assay [2] (setting [35]); ≥ 20 µM in assay [3] (setting [35]); ≥ 20 µM in assay [21] (setting [35]); ≥ 20 µM in assay [5] (setting [35]); ≥ 20 µM in assay [7] (setting [35]); 2.2 nM in assay [8] (setting [35]). Also, the dissociation constant Kd in assay [22] (setting [35]) was 103 nM; in assay [9] (setting [35]), ≥ 20 µM; in [23] (setting [35]), ≥ 20 µM; in assay [10] (setting [35]), ≥ 20 µM; in [24] (setting [35]), 351 nM.
As for FESTITGEY, the Kd in assay [24] (source organism: Vibrio cholerae 2740-80) turned out to be 7.5 nM.
Regarding FMKDGRSLV, the Kd in assay [25] (setting [36]) was 1660 nM; in assay [26] (setting [36]), 219 nM; in assay [27] (setting [36]), 318 nM; in [28] (setting [36]) it was 16.1 nM.
For GLFGKTQVGV, the Kd in assay [25] (setting [36]) amounted to 2760 nM; in assay [26] (setting [36]), 6.21 nM; in assay [28] (setting [36]), 0.55 nM.
As for GVFHTMWHV, the Kd in [25] (setting [36]) is 109 nM; in assay [29] it was 7.01 nM; in assay [26] (setting [36]), 7.59 nM; in [27] (source organism: Dengue virus 3 Martinique/1243/1999) it was 4.41 nM.
HLTRVGPYL: the Kd in [2] (setting [37]) is ≥ 20 µM; in assay [3] (setting [37]), ≥ 20 µM; in assay [21] (setting [37]), ≥ 20 µM; in assay [5] (setting [37]) it was ≥ 20 µM; in assay [7] (setting [37]) it was ≥ 20 µM; in assay [8] (setting [37]), 2.4 nM. Further, the Kd is 1030 nM in [22] (setting [37]); ≥ 20 µM in [9] (setting [37]); ≥ 20 µM in [23] (setting [37]); ≥ 20 µM in assay [10] (setting [37]); ≥ 20000 nM in assay [24] (setting [37]).
As for LLAGFMAYM, the Kd worked out at 1.97 nM in [25] (setting [36]), 4.7 nM in assay [26] (setting [36]), 1210 nM in [30] and 68.5 nM in [28] (setting [36]).
LLENDMKFTV: the Kd in assay [25] (setting [38]) worked out at 115 nM; in [26] (setting [38]), 5.76 nM.
Take LLVKLALITV: the Kd is 6700 nM in assay [25] (setting [36]), 17.6 nM in assay [26] (setting [36]), 769 nM in assay [27] (setting [36]) and 0.18 nM in assay [28] (setting [36]).
Take LLYYWVHLF: the Kd in assay [24] (source organism: Bacillus thuringiensis str. Al Hakam) came to 22 nM.
For MLLVLCVTQV, the Kd in assay [25] (setting [39]) stood at 843 nM; in [26] (setting [39]), 26.5 nM; in assay [27] (setting [40]), 84 nM; in [28] (setting [40]), 175 nM.
In the case of RKSAPSTGGV, the Kd was ≥ 20600 nM in assay [25] (source organism: Homo sapiens) and ≥ 38700 nM in [26] (source organism: Homo sapiens).
TMLLMLLPTA: the Kd in [31] worked out at 12.4 µM; in assay [25] (setting [38]), 661 nM; in assay [26] (setting [38]), 30.6 nM; in assay [27] (source organism: Dengue virus 1 Brazil/97-11/1997), 2.59 nM.
For TSACGIFLK, the Kd in assay [1] (setting [41]), in assay [2] (setting [41]), in [3] (setting [41]), in assay [32], in [4] (setting [41]) and in [21] (setting [41]) was ≥ 20 µM each time. Besides, the Kd in assay [5] (setting [41]) was ≥ 20 µM; in assay [6] (setting [41]), ≥ 20 µM; in assay [7] (setting [41]), ≥ 20 µM; in assay [8] (setting [41]), ≥ 20000 nM; in [9] (setting [41]), ≥ 20 µM; in assay [10] (setting [41]), ≥ 20 µM. For the same sequence, the Kd was ≥ 20 µM in [11] (setting [41]); ≥ 20 µM in assay [12] (setting [41]); ≥ 20 µM in assay [16] (setting [41]); 1100 nM in assay [18] (source organism: Sudan ebolavirus - Maleo (1979)); ≥ 20 µM in [19] (setting [41]); ≥ 20 µM in [20] (setting [41]).
Regarding VTYECPLLV, the Kd in assay [25] (setting [36]) came to 562 nM; in assay [26] (setting [36]) it was 26.6 nM; in [33], 343 nM.
YLALIATFKI: in assay [25] (source organism: Dengue virus 3 China/80-2/1980), the Kd came out at 885 nM.
